The target of one test is ACE2-His (human) (UniProt Q9BYF1). Description: ELISA; BPS Bioscience #79936 kit: ACE2-His held on a 96-well nickel-coated plate, test compound (25-200 µg/mL) incubated 60 min at room temperature, then spike (RBD)-Fc added for 60 min, anti-mouse Fc-HRP, chemiluminescence.
The target in test [1] is SARS-CoV-2 spike (RBD)-Fc (SARS-CoV-2) (UniProt P0DTC2). Description: ELISA; BPS Bioscience #79936 kit: plate coated with spike (RBD)-Fc, serial concentrations of test compound (200-12.5) added, kit completed as in its manual, luminescence.

ACE2-His (human), sequence (Q9BYF1 18-805): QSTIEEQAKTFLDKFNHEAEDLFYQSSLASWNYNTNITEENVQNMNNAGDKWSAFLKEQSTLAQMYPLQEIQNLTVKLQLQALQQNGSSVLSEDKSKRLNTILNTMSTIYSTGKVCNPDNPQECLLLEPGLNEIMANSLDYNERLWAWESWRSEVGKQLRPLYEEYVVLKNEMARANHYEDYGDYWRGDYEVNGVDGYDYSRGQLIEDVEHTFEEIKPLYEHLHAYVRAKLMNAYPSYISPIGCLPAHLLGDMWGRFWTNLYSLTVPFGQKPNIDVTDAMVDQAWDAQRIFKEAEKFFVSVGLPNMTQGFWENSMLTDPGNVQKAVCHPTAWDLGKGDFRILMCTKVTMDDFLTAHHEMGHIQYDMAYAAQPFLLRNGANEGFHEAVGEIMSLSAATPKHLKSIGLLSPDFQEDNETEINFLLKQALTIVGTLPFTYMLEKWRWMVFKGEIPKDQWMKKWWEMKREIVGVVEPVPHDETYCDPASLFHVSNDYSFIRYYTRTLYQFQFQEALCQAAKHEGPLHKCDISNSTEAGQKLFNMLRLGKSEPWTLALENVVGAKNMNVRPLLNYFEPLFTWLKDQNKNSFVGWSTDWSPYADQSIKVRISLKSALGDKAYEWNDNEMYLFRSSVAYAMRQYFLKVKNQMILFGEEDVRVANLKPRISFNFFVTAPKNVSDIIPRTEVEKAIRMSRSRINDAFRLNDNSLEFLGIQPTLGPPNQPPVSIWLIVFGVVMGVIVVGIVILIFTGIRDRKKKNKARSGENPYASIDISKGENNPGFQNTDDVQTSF

The substance “bovine lactoferrin (natural protein; other documents disagree on this pair)” had a maximum percent inhibition of ACE2/spike at 200 mg concentration in the test with ACE2-His (human) of 33%.

bovine lactoferrin (natural protein) registered a maximum percent inhibition (RBD neutralization) in test [1] of 94%.
